Reference: paper PMC11370580

Columns and labels:
HMGB1-WT (Homo sapiens) [1] = assay: restriction enzyme accessibility
HMGB1-WT (Homo sapiens) [2] = assay: EMSA; details: scale: fold lower affinity than with flanking DNA

Substance: 40/40-Pst137 nucleosome
- K half (HMGB1-WT (Homo sapiens) [1]): 113 nM

Substance: core nucleosome (0/0)
- binding signal (HMGB1-WT (Homo sapiens) [2]): 10
